This passage reports Kd and Ki results from publication PMC11871066, “Structure-based discovery of hydrocarbon-stapled paxillin peptides that block FAK scaffolding in cancer” (Nature Communications, 2025).

Bridge positions count the residues as written; N and C are the ends. Square brackets hold non-standard residues; d marks the D form. R8 = C=CCCCCCC[C@@](C)(N)C(=O)O; R5 = C=CCCC[C@@](C)(N)C(=O)O; S5 = C=CCCC[C@](C)(N)C(=O)O A value given as a limit tells only on which side of the number the result lay.

Broadly, the Kd is the constant that tells how readily two partners part at equilibrium. Low values mean a tighter complex, high ones a looser complex. What is called Ki is a dissociation constant, usually derived from enzyme kinetics or from competition with a known ligand.

Assay [1] concerns the target T1, biotinylated AviTag FAK FAT protein (human, biotin).
T1 construct: focal adhesion kinase (FAK), focal adhesion targeting (FAT) domain; captured on a streptavidin biosensor; also called focal adhesion targeting (FAT) domain
Briefly: SPR; biotinylated AviTag FAT immobilised on a streptavidin (SADH) biosensor, ForteBio Pioneer FE, OneStep gradient injection at 150 µl/min; 100 mM Tris-Cl pH 8.0, 200 mM NaCl, 0.05% Tween-20; peptides 200 µM to 97 nM; KD from kinetic data, one-site model. As to conditions: both partners purified.

Assay [2] concerns the target T2, recombinant FAK FAT protein (fluorescence polarisation assay) (human).
T2 construct: focal adhesion kinase (FAK), focal adhesion targeting (FAT) domain
Nature of the assay: fluorescence polarisation; competition: FAT 25 µM, TAMRA-LD2 L10D probe 0.1 µM, peptide titrated from 1.25 mM, 3 h; 20 mM Tris-Cl pH 8.0, 200 mM NaCl, 0.05% β-mercaptoethanol, 0.1% Triton-X 100, 5% glycerol; Ki calculated from IC50. As to conditions: both partners purified.

The molecule Ac-NL[R8]ELDRLW[S5]ELN-NH2 (staple 3-10) [stapled peptide 2007] displayed a Kd in assay [1] of 60.6 µM. Besides, in assay [2], the Ki is 190 µM.
For Ac-NLSE[S5]DRL[S5]LELN-NH2 (staple 5-9) [stapled peptide 1919], the Kd in assay [1] is 80.6 µM. Moreover, in assay [2], the Ki was 38.6 µM.
For the molecule Ac-NLSELDR[S5]LLE[S5]N-NH2 (staple 8-12) [stapled peptide 2015], the Kd in assay [1] is 30.6 µM. The Ki in assay [2] is 114 µM.

B1: stapled peptide 1920 (lengthened 1907) (peptide)
chain: Ac-SLGSNL[R8]ELDRLL[S5]ELNAVQH-NH2
modifications: staple 7-14
SMILES: CC(=O)N[C@@H](CO)C(=O)N[C@@H](CC(C)C)C(=O)NCC(=O)N[C@@H](CO)C(=O)N[C@@H](CC(N)=O)C(=O)N[C@@H](CC(C)C)C(=O)N[C@]1(C)CCCCCCC=CCCC[C@@](C)(C(=O)N[C@@H](CCC(=O)O)C(=O)N[C@@H](CC(C)C)C(=O)N[C@@H](CC(N)=O)C(=O)N[C@@H](C)C(=O)N[C@H](C(=O)N[C@@H](CCC(N)=O)C(=O)N[C@@H](Cc2c[nH]cn2)C(N)=O)C(C)C)NC(=O)[C@H](CC(C)C)NC(=O)[C@H](CC(C)C)NC(=O)[C@H](CCCNC(=N)N)NC(=O)[C@H](CC(=O)O)NC(=O)[C@H](CC(C)C)NC(=O)[C@H](CCC(=O)O)NC1=O
For B1, the Ki in assay [2] is 25 µM.
Ac-NLS[R8]LDRLLL[S5]LN-NH2 (staple 4-11) [stapled peptide 1905] showed a Kd in assay [1] of 146 µM. Further, the Ki in assay [2] was > 1250 µM.
As for Ac-NLSELDRL[R5]LE[S5]N-NH2 (staple 9-12) [stapled peptide 1921], the Kd in assay [1] was > 200 µM. The Ki in assay [2] was 492 µM.
On the same counts, the results for Ac-NL[R8]ALDALL[S5]ELN-NH2 (staple 3-10) [stapled peptide 2010] are 12.6 µM and 68.5 µM.
Molecule Ac-NL[R8]QLDRLL[S5]QLN-NH2 (staple 3-10) [stapled peptide 1910] yielded a Kd in assay [1] of 22.6 µM. The Ki in assay [2] was 46.8 µM.
In the same order, the values of Ac-NL[R8]ALDRLL[S5]ELN-NH2 (staple 3-10) [stapled peptide 2009] are 3.4 µM and 26.7 µM.
Ac-DL[R8]ELDRLL[S5]ELD-NH2 (staple 3-10) [stapled peptide 1913]: the Kd in assay [1] amounted to 13.7 µM. In assay [2], the Ki was 21.8 µM.
On the same counts, the results for Ac-N[R8]SELDRL[S5]LELN-NH2 (staple 2-9) [stapled peptide 2017] are 27.9 µM and 80.6 µM.
In the same order, the values of Ac-NL[R8]EWDRLL[S5]EWN-NH2 (staple 3-10) [stapled peptide 1933] are 155 µM and 281 µM.
In the same order, the values of Ac-[R8]ELDRLL[S5]-NH2 (staple 1-8) [truncated stapled peptide 2011] are > 200 µM and > 333 µM.
As to Ac-NLSE[R8]DRLLLE[S5]N-NH2 (staple 5-12) [stapled peptide 1914], the Kd in assay [1] was determined as 120 µM. Moreover, in assay [2], the Ki was > 1250 µM.
